Assay results published in publication PMC12846780.

Molecular target: IL7R (human (endogenous in PBMC T cells, SiHa, Daudi)) (UniProt P16871)
Sequence of UniProt P16871 (P16871 21-459): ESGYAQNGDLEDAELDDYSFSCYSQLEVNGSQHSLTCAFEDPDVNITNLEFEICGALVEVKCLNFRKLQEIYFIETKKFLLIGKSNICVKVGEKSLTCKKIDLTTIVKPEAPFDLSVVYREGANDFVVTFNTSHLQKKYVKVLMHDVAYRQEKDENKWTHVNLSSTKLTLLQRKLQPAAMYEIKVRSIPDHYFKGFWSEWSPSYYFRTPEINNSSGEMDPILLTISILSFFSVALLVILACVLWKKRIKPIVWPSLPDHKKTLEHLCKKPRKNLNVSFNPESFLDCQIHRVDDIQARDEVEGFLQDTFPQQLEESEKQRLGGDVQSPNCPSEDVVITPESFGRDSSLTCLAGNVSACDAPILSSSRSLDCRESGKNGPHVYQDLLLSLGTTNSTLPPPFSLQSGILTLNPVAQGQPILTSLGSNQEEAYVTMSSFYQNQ

## IL7-Bevacizumab kineTAC (from UniProt P13232 26-177) (bispecific antibody)
  percent of T cells in PBMCs positive for VEGF-647 after 24 h with 10 nM kineTAC and 25 nM VEGF-647 (four donors): 85.4%
